Test results as given in patent US20240279350A1 (Sanofi, published 2024).
Residue numbers refer to the chain shown, from its start. Names may count otherwise. One block for each binder: values may come before it.

Columns and labels:
[1] = target: T1, cynomolgus CD40 on HEK293 cells (cynomolgus, UniProt G7PG38 21-278); experiment: flow cytometry on cynomolgus CD40-expressing HEK293 cells, 1 h at 4 °C, AF488-conjugated secondary antibody (MFI)
T1 construct: whole, on cells; also called cyno CD40; cynoCD40-expressing HEK293 cells
Protocol: Cyno CD40-expressing HEK293 cells were plated at a density of 50×10³ cells per well in 96-well plates and incubated with serially diluted concentrations of CD40 agonists, hexameric ligand and anti-CD40 antibodies, for 1 hour at 4° C. Cells were then harvested and incubated with AF488-conjugated secondary antibody before flow cytometry analysis using a Fortessa X20.
Data from the flow cytometer was analyzed using FlowJo (V10.8.1), then the binding curves, the Eₘₐₓ, and EC₅₀ values were plotted using GraphPad Prism (V9.1.2).

[2] = target: T2, recombinant human CD40 (human, UniProt P25942 21-193); experiment: SPR (Biacore 8K+), antibody captured on protein A/G, recombinant hCD40 as analyte, 1:1 model
T2 construct: Soluble analyte in SPR; also called Recombinant hCD40; hCD40
T2 sequence (P25942 21-193 limits assumed): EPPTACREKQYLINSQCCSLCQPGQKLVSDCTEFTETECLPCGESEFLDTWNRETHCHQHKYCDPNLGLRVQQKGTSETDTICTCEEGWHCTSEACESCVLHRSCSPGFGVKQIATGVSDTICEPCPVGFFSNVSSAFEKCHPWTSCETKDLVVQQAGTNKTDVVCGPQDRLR
Protocol: Protein A/G was immobilized to the surface of a CM5 series S chip using amine chemistry. Test compounds were then captured to the surface between 120 RU and 170 RU. Recombinant hCD40 was diluted 2-fold from 300 nM to 2.34 nM in HBS-EP+buffer. […] Glycine (10 mM) pH 1.5 was used to regenerate the chip surface. The binding affinity (KD) was determine using a 1:1-binding model by a global fit of all the concentrations.

[3] = target: T3, human CD40 on cells (human, UniProt P25942 21-277); experiment: flow cytometry on human primary naive B-cells, 1 h at 4 °C, AF488-conjugated secondary antibody (MFI)
T3 construct: also called hCD40
T3 sequence (P25942 21-277 limits assumed): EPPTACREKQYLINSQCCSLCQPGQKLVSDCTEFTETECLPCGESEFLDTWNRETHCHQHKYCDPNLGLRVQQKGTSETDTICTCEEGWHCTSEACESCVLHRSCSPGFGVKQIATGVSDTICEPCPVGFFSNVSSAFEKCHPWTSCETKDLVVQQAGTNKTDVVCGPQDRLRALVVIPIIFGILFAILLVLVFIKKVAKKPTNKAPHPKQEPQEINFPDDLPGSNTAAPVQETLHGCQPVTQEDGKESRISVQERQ
Protocol: (§1) Naive B-cell were plated at a density of […] cells per well in 96-well plates and incubated with CD40 agonists, hexameric ligand and anti-CD40 antibodies, for 1 hour at 4° C.

[4] = target: T3, human CD40 on cells; experiment: cell-based or functional assay
[5] = target: rhesus CD40 on HEK293H reporter cells (rhesus, UniProt F6SNI1 21-278); experiment: cell-based or functional assay
[6] = target: T3, human CD40 on cells; experiment: cell-based or functional assay; remark: listed apart in the source
[7] = target: T3, human CD40 on cells; experiment: cell-based or functional assay; remark: listed apart in the source
[8] = target: T3, human CD40 on cells; experiment: flow cytometry on U-2 OS/NFκB cells (further experiment), APC-conjugated anti-human IgG secondary antibody (median fluorescence intensity)
Protocol: (§2) Briefly, cultured U-2 OS/NFκB cells were seeded in 96-well plates at 1.0×10⁵ cells/well and incubated with serially-diluted test antibodies for 60 minutes at 4° C. in 2% FBS/dPBS buffer. The cells were then washed twice with dPBS and further incubated with secondary allophycocyanin (APC)-conjugated AffiniPure F(ab′)₂ fragment donkey anti-human IgG (H+L) antibody (Jackson ImmunoResearch, Ref. 709-136-149) (1:500) for 30 minutes at 4° C. Finally, the cells were washed twice with dPBS and suspended in FACS buffer for flow cytometry analysis. MFI values vs concentrations were analyzed by FlowJo and data were further fitted with four-parameter non-linear regression to get EC₅₀ values by GraphPad Prism software.

[9] = target: T3, human CD40 on cells; experiment: flow cytometry on human primary naive B-cells, 1 h at 4 °C, AF488-conjugated secondary antibody (MFI); remark: listed apart in the source
Protocol: as §1

[10] = target: T3, human CD40 on cells; experiment: cell-based or functional assay; remark: listed apart in the source
[11] = target: T3, human CD40 on cells; experiment: flow cytometry on U-2 OS/NFκB cells; EC50 relative to mAb1
Protocol: as §2

[12] = target: T3, human CD40 on cells; experiment: flow cytometry on Raji cells; EC50 relative to mAb1
Protocol: as §2, with “Raji” for “cultured U-2 OS/NFκB”

[13] = target: T3, human CD40 on cells; experiment: cell-based or functional assay; remark: listed apart in the source
[14] = target: T3, human CD40 on cells; experiment: flow cytometry on Raji cells; binding to Raji cells, flow cytometry
Protocol: as §2, with “Raji” for “cultured U-2 OS/NFκB”

[15] = target: T3, human CD40 on cells; experiment: flow cytometry on U-2 OS/NFκB cells
Protocol: as §2

[16] = target: T3, human CD40 on cells; experiment: flow cytometry on Raji cells
Protocol: as §2, with “Raji” for “cultured U-2 OS/NFκB”

- EC50, CD83 expression, MoDC maturation assay [6]: 1.02 nM
- EC50, IL-8 release, MoDC maturation assay [6]: 1.92 nM
- EC50, CD83 expression, B-cells of hCD40 KI mice [7]: 0.034 nM
- EC50, CD86 expression, B-cells of hCD40 KI mice [7]: 0.011 nM
- EC50 (read off the curve) [1]: ~1 nM
- Kd [2]: 18 nM
- koff [2]: 0.0019 s⁻¹
- kon [2]: 110000 M⁻¹ s⁻¹
- EC50 (read off the curve) [8]: ~2 nM
- EC50 (read off the curve) [3]: ~4 nM
- EC50 (read off the curve) [9]: ~1 nM
- EC50, NFkB-luciferase reporter assay, human NFkB-Luc2P/U-2 OS cells [4]: 1.43 nM
- Top, NFkB-luciferase reporter assay, human NFkB-Luc2P/U-2 OS cells [4]: 16.2 nM
- EC50, luciferase reporter assay, HEK293H rhesus CD40 reporter cells [5]: 0.09 nM
- Top, luciferase reporter assay, HEK293H rhesus CD40 reporter cells [5]: 1.91 nM
B2: AbC1 (antibody, human IgG2, kappa, V domains shown)
VH: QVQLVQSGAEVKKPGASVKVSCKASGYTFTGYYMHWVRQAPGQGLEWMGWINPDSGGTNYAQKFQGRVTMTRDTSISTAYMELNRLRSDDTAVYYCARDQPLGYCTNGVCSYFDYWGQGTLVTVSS
VL: DIQMTQSPSSVSASVGDRVTITCRASQGIYSWLAWYQQKPGKAPNLLIYTASTLQSGVPSRFSGSGSGTDFTLTISSLQPEDFATYYCQQANIFPLTFGGGTKVEIKR
notes: Human IgG2; also called parental antibody; parental AbC1 antibody

- EC50, CD86 expression, primary human B-cell activation assay [10]: 14.7 nM
- Relative masking efficacy, CD86 expression, primary human B-cell activation assay [10]: 84 fold
- EC50, CD83 expression, MoDC maturation assay [6]: 17.2 nM
- EC50, IL-8 release, MoDC maturation assay [6]: 12.2 nM
- Relative masking efficacy [11]: 118 fold
- EC50, CD83 expression, B-cells of hCD40 KI mice [7]: 1.24 nM
- EC50, CD86 expression, B-cells of hCD40 KI mice [7]: 1.05 nM
- Relative masking efficacy, CD83 expression, B-cells of hCD40 KI mice [7]: 24.3 fold
- Relative masking efficacy, CD86 expression, B-cells of hCD40 KI mice [7]: 33.8 fold
- Relative masking efficacy [12]: 107 fold
- EC50 [16]: 143 nM
- EC50, luciferase reporter assay in U-2 OS/NFκB cells [13]: 45.8 nM
- Relative masking efficacy, luciferase reporter assay in U-2 OS/NFκB cells [13]: 193 fold
- EC50 [15]: 176 nM
B4: MC4 (masked mAb1 comprising MM2 and CL2) (antibody, human IgG2, kappa)
heavy: QVQLVQSGAEVKKPGASVKVSCKASGYTFTGKYMHWVRQAPGQGLEWMGWINPDSGGTNYAQKFQGRVTMTRDTSIATAYMELNRLRSDDTAVYYCARDQPLGYCTNGVCSYFDYWGQGTLVTVSSASTKGPSVFPLAPCSRSTSESTAALGCLVKDYFPEPVTVSWNSGALTSGVHTFPAVLQSSGLYSLSSVVTVPSSNFGTQTYTCNVDHKPSNTKVDKTVERKCCVECPPCPAPPVAGPSVFLFPPKPKDTLMISRTPEVTCVVVDVSHEDPEVQFNWYVDGVEVHNAKTKPREEQFNSTFRVVSVLTVVHQDWLNGKEYKCKVSNKGLPAPIEKTISKTKGQPREPQVYTLPPSREEMTKNQVSLTCLVKGFYPSDIAVEWESNGQPENNYKTTPPMLDSDGSFFLYSKLTVDKSRWQQGNVFSCSVMHEALHNHYTQKSLSLSPGK
light: EVGSYYVCPVRFQYFCEESGRSAGGGGPLGLAGSGGSDIQMTQSPSSVSASVGDRVTITCRASQGIYSWLAWYQQKPGKAPNLLIYTASTLQSGVPSRFSGSGSGTDFTLTISSLQPEDFATYYCQQANIFPLTFGGGTKVEIKRTVAAPSVFIFPPSDEQLKSGTASVVCLLNNFYPREAKVQWKVDNALQSGNSQESVTEQDSKDSTYSLSSTLTLSKADYEKHKVYACEVTHQGLSSPVTKSFNRGEC
notes: Conditionally-active (masked) antibody

- binding result [3]: binds
B5: mAb4 (Y32R) (antibody, human IgG2, kappa, V domains shown)
VH: QVQLVQSGAEVKKPGASVKVSCKASGYTFTGRYMHWVRQAPGQGLEWMGWINPDSGGTNYAQKFQGRVTMTRDTSISTAYMELNRLRSDDTAVYYCARDQPLGYCTNGVCSYFDYWGQGTLVTVSS
VL: B2 VL
notes: Mutant of AbC1 with the same constant regions (IgG2)

- EC50 (read off the curve) [9]: ~2 nM
- EC50, NFkB-luciferase reporter assay, human NFkB-Luc2P/U-2 OS cells [4]: 0.54 nM
- Top, NFkB-luciferase reporter assay, human NFkB-Luc2P/U-2 OS cells [4]: 45.2 nM
B6: mAb2 (Y32K/S77P) (antibody, human IgG2, kappa, V domains shown)
VH: B5 VH with R32K, S77P
VL: B2 VL
notes: as for B5

More lines, now with the values behind:

B1: mAb3 (Y32K) (antibody, human IgG2, kappa, V domains shown)
VH: B5 VH with R32K
VL: B2 VL
notes: as for B5
- EC50 (read off the curve) [1]: ~2 nM
- Kd [2]: 91 nM
- koff [2]: 0.0041 s⁻¹
- kon [2]: 45000 M⁻¹ s⁻¹
- EC50 (read off the curve) [3]: ~5 nM
- EC50, NFkB-luciferase reporter assay, human NFkB-Luc2P/U-2 OS cells [4]: 0.44 nM
- Top, NFkB-luciferase reporter assay, human NFkB-Luc2P/U-2 OS cells [4]: 48.9 nM
- EC50, luciferase reporter assay, HEK293H rhesus CD40 reporter cells [5]: 0.59 nM
- Top, luciferase reporter assay, HEK293H rhesus CD40 reporter cells [5]: 3.54 nM

B3: mAb1 (Y32K/S77A) (antibody, human IgG2, kappa)
heavy: B4 heavy
light: DIQMTQSPSSVSASVGDRVTITCRASQGIYSWLAWYQQKPGKAPNLLIYTASTLQSGVPSRFSGSGSGTDFTLTISSLQPEDFATYYCQQANIFPLTFGGGTKVEIKRTVAAPSVFIFPPSDEQLKSGTASVVCLLNNFYPREAKVQWKVDNALQSGNSQESVTEQDSKDSTYSLSSTLTLSKADYEKHKVYACEVTHQGLSSPVTKSFNRGEC
notes: Mutant of AbC1 with the same constant regions (IgG2); also called mAb1 double mutant; mAb1 (without masking moiety)
- EC50, CD86 expression, primary human B-cell activation assay [10]: 0.175 nM
- Relative masking efficacy, CD86 expression, primary human B-cell activation assay [10]: 1 fold
- EC50, CD83 expression, MoDC maturation assay [6]: 0.49 nM
- EC50, IL-8 release, MoDC maturation assay [6]: 0.21 nM
- Relative masking efficacy [11]: 1 fold
- EC50, CD83 expression, B-cells of hCD40 KI mice [7]: 0.051 nM
- EC50, CD86 expression, B-cells of hCD40 KI mice [7]: 0.031 nM
- Relative masking efficacy, CD83 expression, B-cells of hCD40 KI mice [7]: 1 fold
- Relative masking efficacy, CD86 expression, B-cells of hCD40 KI mice [7]: 1 fold
- EC50 (read off the curve) [1]: ~2 nM
- Kd [2]: 65 nM
- koff [2]: 0.0034 s⁻¹
- kon [2]: 52000 M⁻¹ s⁻¹
- EC50 (read off the curve) [8]: ~2 nM
- Relative masking efficacy [12]: 1 fold
- EC50, luciferase reporter assay in U-2 OS/NFκB cells [13]: 0.238 nM
- Relative masking efficacy, luciferase reporter assay in U-2 OS/NFκB cells [13]: 1 fold
- EC50 (read off the curve) [9]: ~2 nM
- EC50, NFkB-luciferase reporter assay, human NFkB-Luc2P/U-2 OS cells [4]: 0.52 nM
- Top, NFkB-luciferase reporter assay, human NFkB-Luc2P/U-2 OS cells [4]: 53.6 nM
- EC50, luciferase reporter assay, HEK293H rhesus CD40 reporter cells [5]: 0.49 nM
- Top, luciferase reporter assay, HEK293H rhesus CD40 reporter cells [5]: 3.91 nM
- EC50 [14]: 1.34 nM
- EC50 [15]: 1.5 nM
